This is an account of results in paper PMC3511531, “Structural Requirements for the Procoagulant Activity of Nucleic Acids”.

This data set addresses high molecular weight kininogen (single-chain) (UniProt P01042 19-644). Briefly: microtiter plate binding assay (streptavidin-peroxidase); Proteins coated at 10 ug/mL in 100 mM sodium carbonate pH 9.5 (4 C, 20 h); blocked with TBS + 3% BSA; biotinylated DNA 0.31-50 ug/mL, 22 C, 2 h; TBS washes; binding buffer composition and pH not stated. Conditions: protein: commercial; hairpin, blunt-ended.

high molecular weight kininogen (single-chain), sequence (P01042 19-644): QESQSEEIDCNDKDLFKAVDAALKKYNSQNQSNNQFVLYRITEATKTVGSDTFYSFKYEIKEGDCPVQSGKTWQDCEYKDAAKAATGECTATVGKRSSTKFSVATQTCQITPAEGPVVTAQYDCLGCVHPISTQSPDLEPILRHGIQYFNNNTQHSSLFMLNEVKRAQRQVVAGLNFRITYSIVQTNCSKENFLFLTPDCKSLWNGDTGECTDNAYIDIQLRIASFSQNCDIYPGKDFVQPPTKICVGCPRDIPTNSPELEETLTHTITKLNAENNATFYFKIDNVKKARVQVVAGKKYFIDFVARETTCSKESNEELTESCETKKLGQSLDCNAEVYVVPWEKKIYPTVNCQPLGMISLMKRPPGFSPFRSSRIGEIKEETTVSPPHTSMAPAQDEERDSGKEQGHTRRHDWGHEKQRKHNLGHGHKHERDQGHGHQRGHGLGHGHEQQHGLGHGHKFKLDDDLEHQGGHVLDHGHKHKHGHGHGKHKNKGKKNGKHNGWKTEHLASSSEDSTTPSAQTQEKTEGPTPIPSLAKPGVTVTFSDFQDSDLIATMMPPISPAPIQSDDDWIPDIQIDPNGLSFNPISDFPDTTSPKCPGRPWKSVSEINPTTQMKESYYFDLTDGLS

On to GGGAATGGGTATTCCCATCCC (structured_DNA) [21mer-H1 DNA], for which the dissociation constant (Kd) was found to be 1820 ± 230 nM.

As usually defined, the Kd is a measure of binding affinity in units of concentration.
